Each binder was assayed against T1, phosphorylated human tau protein (human, UniProt P10636-8 1-441, limits assumed, S422 phosphorylation) (assay: SPR BIAcore).
T1 construct: also called pTau
T1 sequence (P10636 other isoform, or with tags, fused parts or gaps limits assumed): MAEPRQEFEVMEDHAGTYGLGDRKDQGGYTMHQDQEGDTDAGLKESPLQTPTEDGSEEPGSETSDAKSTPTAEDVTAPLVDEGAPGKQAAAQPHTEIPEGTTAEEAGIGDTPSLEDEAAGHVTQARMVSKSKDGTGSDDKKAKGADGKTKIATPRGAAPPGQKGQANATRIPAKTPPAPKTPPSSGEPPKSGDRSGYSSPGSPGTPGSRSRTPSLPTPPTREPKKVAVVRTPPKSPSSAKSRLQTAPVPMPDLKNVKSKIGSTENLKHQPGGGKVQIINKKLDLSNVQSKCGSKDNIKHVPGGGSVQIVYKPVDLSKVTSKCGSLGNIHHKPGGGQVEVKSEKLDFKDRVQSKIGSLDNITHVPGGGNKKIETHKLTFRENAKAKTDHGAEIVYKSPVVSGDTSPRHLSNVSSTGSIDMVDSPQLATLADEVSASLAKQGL

Binder | BL
Rb86 HC 001_IGHV3_23_04 / LC Rb86 (antibody, V domains shown) VH: QQLVESGGGLVQPGGSLRLSCAASGFSLSSNAINWVRQAPGKGLEWVGYIAVSGNTYYASWAKGRFTISRDNSKNTLYLQMNSLRAEDTAVYYCGKSNIWGQGTLVTVSS VL: AQVLTQTTSPVSAAVGSTVTISCQSSQSVRTNKLAWFQQKPGQPPKRLIYSASTLDFGVPSRFSASGSGTQFTLTISDVQCDDAATYYCLGYFDCSIADCVAFGGGTEVVVK | 197 RU
Rb86 HC 001_IGHV3_23_04 / LC 001--IMGT_hVK_1_5 (antibody, V domains shown) VH: QQLVESGGGLVQPGGSLRLSCAASGFSLSSNAINWVRQAPGKGLEWVGYIAVSGNTYYASWAKGRFTISRDNSKNTLYLQMNSLRAEDTAVYYCGKSNIWGQGTLVTVSS VL: DIQMTQSTSTLSASVGDRVTITCQSSQSVRTNKLAWFQQKPGKAPKRLIYSASTLDFGVPSRFSGSGSGTEFTLTISSLQPDDFATYYCLGYFDCSIADCVAFGGGTKVEIK | 101 RU
Rb86 HC 001_IGHV3_23_04 / LC 002--IMGT_hVK_4_1 (antibody, V domains shown) VH: QQLVESGGGLVQPGGSLRLSCAASGFSLSSNAINWVRQAPGKGLEWVGYIAVSGNTYYASWAKGRFTISRDNSKNTLYLQMNSLRAEDTAVYYCGKSNIWGQGTLVTVSS VL: AQVMTQSPDSLAVSLGERATINCKSSQSVRTNKLAWFQQKPGQPPKRLIYSASTLDSGVPDRFSGSGSGTDFTLTISSLQAEDVAVYYCLGYFDCSIADCVAFGGGTKVEIK | 108 RU
Rb86 HC 001_IGHV3_23_04 / LC 003--IMGT_hVK_4_1 (antibody, V domains shown) VH: QQLVESGGGLVQPGGSLRLSCAASGFSLSSNAINWVRQAPGKGLEWVGYIAVSGNTYYASWAKGRFTISRDNSKNTLYLQMNSLRAEDTAVYYCGKSNIWGQGTLVTVSS VL: AQVMTQSPDSLAVSLGERATINCKSSQSVRTNKLAWFQQKPGQPPKRLIYSASTLDSGVPDRFSGSGSGTDFTLTISSLQAEDVAVYYCLGYFDCSIADCVAFGGGTEVVVK | 102 RU
Rb86 HC 001_IGHV3_23_04 / LC 004--IMGT_hVK_4_1 (antibody, V domains shown) VH: QQLVESGGGLVQPGGSLRLSCAASGFSLSSNAINWVRQAPGKGLEWVGYIAVSGNTYYASWAKGRFTISRDNSKNTLYLQMNSLRAEDTAVYYCGKSNIWGQGTLVTVSS VL: DIVMTQSPDSLAVSLGERATINCKSSQSVRTNKLAWFQQKPGQPPKRLIYSASTLDSGVPDRFSGSGSGTDFTLTISSLQAEDVAVYYCLGYFDCSIADCVAFGGGTKVEIK | 59.2 RU
Rb86 HC 001_IGHV3_23_04 / LC 005--IMGT_hVK_4_1 (antibody, V domains shown) VH: QQLVESGGGLVQPGGSLRLSCAASGFSLSSNAINWVRQAPGKGLEWVGYIAVSGNTYYASWAKGRFTISRDNSKNTLYLQMNSLRAEDTAVYYCGKSNIWGQGTLVTVSS VL: DIVMTQSPDSLAVSLGERATINCKSSQSVRTNKLAWFQQKPGQPPKRLIYSASTLDSGVPDRFSGSGSGTDFTLTISSLQAEDVAVYYCLGYFDSSIADSVAFGGGTKVEIK | 62.9 RU
Rb86 HC 001_IGHV3_23_04 / LC 006--IMGT_hVK_7_3 (antibody, V domains shown) VH: QQLVESGGGLVQPGGSLRLSCAASGFSLSSNAINWVRQAPGKGLEWVGYIAVSGNTYYASWAKGRFTISRDNSKNTLYLQMNSLRAEDTAVYYCGKSNIWGQGTLVTVSS VL: DIVLTQSPASLAVSPGQRATITCQSSQSVRTNKLAWFQQKPGQPPKRLIYSASTLDFGVPARFSGSGSGTDFTLTINPVEANDTANYYCLGYFDCSIADCVAFGGGTKVEIK | 97.9 RU
Rb86 HC 002--IMGT_hVH_3_23 / LC Rb86 (antibody, V domains shown) VH: QSVLESGGGLVQPGGSLRLSCAASGFSLSSNAINWVRQAPGKGLEWVGYIAVSGNTYYASWAKGRFTISRDNSKNTLYLQMNSLRAEDTAVYYCGKSNIWGPGTLVTVSS VL: AQVLTQTTSPVSAAVGSTVTISCQSSQSVRTNKLAWFQQKPGQPPKRLIYSASTLDFGVPSRFSASGSGTQFTLTISDVQCDDAATYYCLGYFDCSIADCVAFGGGTEVVVK | 225 RU
Rb86 HC 001_IGHV3_23_04 / LC 010--IMGT_hVK_1_17 (antibody, V domains shown) VH: QQLVESGGGLVQPGGSLRLSCAASGFSLSSNAINWVRQAPGKGLEWVGYIAVSGNTYYASWAKGRFTISRDNSKNTLYLQMNSLRAEDTAVYYCGKSNIWGQGTLVTVSS VL: DIQMTQSPSSLSASVGDRVTITCRASQGVRTNKLGWYQQKPGKAPKRLIYSASTLQSGVPSRFSGSGSGTEFTLTISSLQPEDFATYYCLGYFDCSIADCVAFGGGTKVEIK | -4.7 RU
Rb86 HC 001_IGHV3_23_04 / LC 012--IMGT_hVK_1_17 (antibody, V domains shown) VH: QQLVESGGGLVQPGGSLRLSCAASGFSLSSNAINWVRQAPGKGLEWVGYIAVSGNTYYASWAKGRFTISRDNSKNTLYLQMNSLRAEDTAVYYCGKSNIWGQGTLVTVSS VL: DIQMTQSPSSLSASVGDRVTITCRASQGVRTNKLAWFQQKPGQPPKRLIYSASTLQSGVPSRFSGSGSGTEFTLTISSLQPEDFATYYCLGYFDCSIADCVAFGGGTKVEIK | 92.2 RU
Rb86 HC 001_IGHV3_23_04 / LC 013--IMGT_hVK_1_17 (antibody, V domains shown) VH: QQLVESGGGLVQPGGSLRLSCAASGFSLSSNAINWVRQAPGKGLEWVGYIAVSGNTYYASWAKGRFTISRDNSKNTLYLQMNSLRAEDTAVYYCGKSNIWGQGTLVTVSS VL: DIQMTQSTSSLSASVGDRVTITCRASQGVRTNKLAWFQQKPGQPPKRLIYSASTLQSGVPSRFSGSGSGTEFTLTISSLQPEDFATYYCLGYFDCSIADCVAFGGGTKVEIK | 90.9 RU
Rb86 HC Rb86 / LC 014--IMGT_hVK_1_17 (antibody, V domains shown) VH: QSVEESGGRLVTPGTPLTLTCTVSGFSLSSNAINWVRQAPGKGLEWIGYIAVSGNTYYASWAKGRFTISKASTTVDLKMTSPTAEDTGTYFCGKSNIWGPGTLVTVSL VL: DIQMTQSPSSLSASVGDRVTITCRASQGVRTNKLAWFQQKPGQPPKRLIYSASTLQSGVPSRFSGSGSGTEFTLTISSLQSEDFATYYCLGYFDCSIADCVAFGGGTKVEIK | 150 RU
Rb86 HC 001_IGHV3_23_04 / LC 014--IMGT_hVK_1_17 (antibody, V domains shown) VH: QQLVESGGGLVQPGGSLRLSCAASGFSLSSNAINWVRQAPGKGLEWVGYIAVSGNTYYASWAKGRFTISRDNSKNTLYLQMNSLRAEDTAVYYCGKSNIWGQGTLVTVSS VL: DIQMTQSPSSLSASVGDRVTITCRASQGVRTNKLAWFQQKPGQPPKRLIYSASTLQSGVPSRFSGSGSGTEFTLTISSLQSEDFATYYCLGYFDCSIADCVAFGGGTKVEIK | 96.2 RU
Rb86 HC 001_IGHV3_23_04 / LC 015--IMGT_hVK_1_17 (antibody, V domains shown) VH: QQLVESGGGLVQPGGSLRLSCAASGFSLSSNAINWVRQAPGKGLEWVGYIAVSGNTYYASWAKGRFTISRDNSKNTLYLQMNSLRAEDTAVYYCGKSNIWGQGTLVTVSS VL: DIQMTQSPSSLSASVGDRVTITCRASQGVRTNKLAWFQQKPGQPPKRLIYSASTLQSGVPSRFSGSGSGTEFTLTISSLQPEDFATYYCLGYFDSSIADSVAFGGGTKVEIK | 63.6 RU
Rb86 HC 001_IGHV3_23_04 / LC 017--IMGT_hVK_1_17 (antibody, V domains shown) VH: QQLVESGGGLVQPGGSLRLSCAASGFSLSSNAINWVRQAPGKGLEWVGYIAVSGNTYYASWAKGRFTISRDNSKNTLYLQMNSLRAEDTAVYYCGKSNIWGQGTLVTVSS VL: DIQMTQSPSSLSASVGDRVTITCRSSQSVRTNKLAWFQQKPGQPPKRLIYSASTLDFGVPSRFSGSGSGTEFTLTISSLQPEDFATYYCLGYFDCSIADCVAFGGGTKVEIK | 91.1 RU

What follows are binders tested against T2, phosphorylated human tau protein (human, UniProt P10636-8 1-441, limits assumed, S422 phosphorylation) (assay: SPR (BIAcore), captured antibody).
T2 construct: also called pTau
T2 sequence (P10636 other isoform, or with tags, fused parts or gaps limits assumed): as the sequence (P10636 other isoform, or with tags, fused parts or gaps limits assumed) above

Binder | half-life (t1/2)
Rb86 variant: HC 001_IGHV3_23_04 / LC Rb86 (antibody, V domains shown) VH: QQLVESGGGLVQPGGSLRLSCAASGFSLSSNAINWVRQAPGKGLEWVGYIAVSGNTYYASWAKGRFTISRDNSKNTLYLQMNSLRAEDTAVYYCGKSNIWGQGTLVTVSS VL: AQVLTQTTSPVSAAVGSTVTISCQSSQSVRTNKLAWFQQKPGQPPKRLIYSASTLDFGVPSRFSASGSGTQFTLTISDVQCDDAATYYCLGYFDCSIADCVAFGGGTEVVVK | 12.7 min
Rb86 variant: HC 001_IGHV3_23_04 / LC 001--IMGT_hVK_1_5 (antibody, V domains shown) VH: QQLVESGGGLVQPGGSLRLSCAASGFSLSSNAINWVRQAPGKGLEWVGYIAVSGNTYYASWAKGRFTISRDNSKNTLYLQMNSLRAEDTAVYYCGKSNIWGQGTLVTVSS VL: DIQMTQSTSTLSASVGDRVTITCQSSQSVRTNKLAWFQQKPGKAPKRLIYSASTLDFGVPSRFSGSGSGTEFTLTISSLQPDDFATYYCLGYFDCSIADCVAFGGGTKVEIK | 3.41 min
Rb86 variant: HC 001_IGHV3_23_04 / LC 002--IMGT_hVK_4_1 (antibody, V domains shown) VH: QQLVESGGGLVQPGGSLRLSCAASGFSLSSNAINWVRQAPGKGLEWVGYIAVSGNTYYASWAKGRFTISRDNSKNTLYLQMNSLRAEDTAVYYCGKSNIWGQGTLVTVSS VL: AQVMTQSPDSLAVSLGERATINCKSSQSVRTNKLAWFQQKPGQPPKRLIYSASTLDSGVPDRFSGSGSGTDFTLTISSLQAEDVAVYYCLGYFDCSIADCVAFGGGTKVEIK | 5.36 min
Rb86 variant: HC 001_IGHV3_23_04 / LC 003--IMGT_hVK_4_1 (antibody, V domains shown) VH: QQLVESGGGLVQPGGSLRLSCAASGFSLSSNAINWVRQAPGKGLEWVGYIAVSGNTYYASWAKGRFTISRDNSKNTLYLQMNSLRAEDTAVYYCGKSNIWGQGTLVTVSS VL: AQVMTQSPDSLAVSLGERATINCKSSQSVRTNKLAWFQQKPGQPPKRLIYSASTLDSGVPDRFSGSGSGTDFTLTISSLQAEDVAVYYCLGYFDCSIADCVAFGGGTEVVVK | 4.76 min
Rb86 variant: HC 001_IGHV3_23_04 / LC 004--IMGT_hVK_4_1 (antibody, V domains shown) VH: QQLVESGGGLVQPGGSLRLSCAASGFSLSSNAINWVRQAPGKGLEWVGYIAVSGNTYYASWAKGRFTISRDNSKNTLYLQMNSLRAEDTAVYYCGKSNIWGQGTLVTVSS VL: DIVMTQSPDSLAVSLGERATINCKSSQSVRTNKLAWFQQKPGQPPKRLIYSASTLDSGVPDRFSGSGSGTDFTLTISSLQAEDVAVYYCLGYFDCSIADCVAFGGGTKVEIK | 3.44 min
Rb86 variant: HC 001_IGHV3_23_04 / LC 005--IMGT_hVK_4_1 (antibody, V domains shown) VH: QQLVESGGGLVQPGGSLRLSCAASGFSLSSNAINWVRQAPGKGLEWVGYIAVSGNTYYASWAKGRFTISRDNSKNTLYLQMNSLRAEDTAVYYCGKSNIWGQGTLVTVSS VL: DIVMTQSPDSLAVSLGERATINCKSSQSVRTNKLAWFQQKPGQPPKRLIYSASTLDSGVPDRFSGSGSGTDFTLTISSLQAEDVAVYYCLGYFDSSIADSVAFGGGTKVEIK | 1.71 min
Rb86 variant: HC 001_IGHV3_23_04 / LC 006--IMGT_hVK_7_3 (antibody, V domains shown) VH: QQLVESGGGLVQPGGSLRLSCAASGFSLSSNAINWVRQAPGKGLEWVGYIAVSGNTYYASWAKGRFTISRDNSKNTLYLQMNSLRAEDTAVYYCGKSNIWGQGTLVTVSS VL: DIVLTQSPASLAVSPGQRATITCQSSQSVRTNKLAWFQQKPGQPPKRLIYSASTLDFGVPARFSGSGSGTDFTLTINPVEANDTANYYCLGYFDCSIADCVAFGGGTKVEIK | 4.38 min

Reference: patent US20170204182A1 (published 2017)
